Blank lines part the entries; values can stand above or below the binder they belong to. Starred links: 1 amine or outer side, 2 acyl side, 3 side chain; linkers in the order of their positions; H or OH if unused. Positions of bridges follow the written chain, without caps; N, C: chain ends. Non-standard residues stand in square brackets, D forms with d. Primed or numbered codes have the meaning given here. *: point of attachment. PyrS2″ = (S)-3-amino-1-((pent-4-en-1-yloxy)carbonyl)pyrrolidine-3-carboxylic acid (stapling residue), C=CCCCOC(=O)N1CC[C@@](N[*:1])(C(=O)[*:2])C1; B5(6) = 2-amino-2-(pent-4-en-1-yl)hept-6-enoic acid (bis(4-pentenyl)glycine), stitching residue, C=CCCCC(CCCC=C)(N[*:1])C(=O)[*:2]; PyrS2 = (S)-3-amino-1-((pent-4-en-1-yloxy)carbonyl)pyrrolidine-3-carboxylic acid, C=CCCCOC(=O)N1CC[C@@](N[*:1])(C(=O)[*:2])C1; PyrS3 = (S)-3-amino-1-((hex-5-en-1-yloxy)carbonyl)pyrrolidine-3-carboxylic acid, C=CCCCCOC(=O)N1CC[C@@](N[*:1])(C(=O)[*:2])C1; B5(7) = 2-amino-2-(pent-4-en-1-yl)hept-6-enoic acid, two olefinic side chains, C=CCCCC(CCCC=C)(N[*:1])C(=O)[*:2]; 4MePipBz = 4-((4-methylpiperazin-1-yl)methyl)benzoyl on Lys side chain, CN1CCN(Cc2ccc(C(=O)*)cc2)CC1; 35CF3PhPr = 3-(3,5-bis(trifluoromethyl)phenyl)propanoyl, O=C(CCc1cc(C(F)(F)F)cc(C(F)(F)F)c1)*; B5(3) = 2,2-bis(4-pentenyl)glycine (stitching residue), C=CCCCC(CCCC=C)(N[*:1])C(=O)[*:2]; Me3AdamantC = 3,5,7-trimethyladamantane-1-carbonyl, CC12CC3(C)CC(C)(C1)CC(C(=O)*)(C2)C3; MeMorphBz = 4-(morpholinomethyl)benzoyl on Lys side chain, O=C(c1ccc(CN2CCOCC2)cc1)*; B5 = 2-amino-2-(pent-4-en-1-yl)hept-6-enoic acid, C=CCCCC(CCCC=C)(N[*:1])C(=O)[*:2]; Propanoyl(3-(1-naphthyl)) = O=C(CCc1cccc2ccccc12)*; Bta = N[C@@H](Cc1csc2ccccc12)C(=O)O; αAllylPro = C=CC[C@@]1(C(=O)O)CCCN1; tBuAla = CC(C)(C)C[C@H](N)C(=O)O; 3Thi = N[C@@H](Cc1ccsc1)C(=O)O; S8 = C=CCCCCCC[C@](C)(N)C(=O)O; AdamantC = not defined here; PyrS2(4) = not defined here; Octanoyl = CCCCCCCC(=O)*
How the values were obtained:
[1] = biological target: T1, B-cat-Halo (beta-catenin HaloTag fusion expressed in HEK293 cells) (Homo sapiens (Human), UniProt P35222 1-781); experiment: cell-based or functional assay
T1 sequence: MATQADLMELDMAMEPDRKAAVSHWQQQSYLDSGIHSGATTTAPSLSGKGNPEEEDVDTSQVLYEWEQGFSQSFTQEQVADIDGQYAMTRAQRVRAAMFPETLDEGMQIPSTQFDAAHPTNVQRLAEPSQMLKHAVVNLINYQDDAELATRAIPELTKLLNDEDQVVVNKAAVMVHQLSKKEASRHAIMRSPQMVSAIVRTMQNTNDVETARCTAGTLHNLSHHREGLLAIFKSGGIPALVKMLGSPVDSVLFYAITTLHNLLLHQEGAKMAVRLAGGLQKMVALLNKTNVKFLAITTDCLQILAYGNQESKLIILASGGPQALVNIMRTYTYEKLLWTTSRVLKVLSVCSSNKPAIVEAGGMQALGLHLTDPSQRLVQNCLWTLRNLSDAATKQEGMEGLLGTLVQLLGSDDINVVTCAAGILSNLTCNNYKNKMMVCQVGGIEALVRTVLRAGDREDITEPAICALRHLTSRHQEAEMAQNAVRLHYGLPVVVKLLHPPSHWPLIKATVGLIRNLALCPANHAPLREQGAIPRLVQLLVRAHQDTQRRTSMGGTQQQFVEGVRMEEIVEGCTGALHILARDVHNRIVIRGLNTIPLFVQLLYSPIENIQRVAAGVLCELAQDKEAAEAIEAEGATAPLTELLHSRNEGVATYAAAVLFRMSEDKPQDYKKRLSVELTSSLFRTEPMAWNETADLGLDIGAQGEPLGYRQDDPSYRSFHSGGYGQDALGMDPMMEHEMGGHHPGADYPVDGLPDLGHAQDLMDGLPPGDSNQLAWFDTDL

[2] = biological target: T2, B-cat-Halo (beta-catenin HaloTag NanoBRET construct expressed in HEK293 cells) (UniProt P35222 1-781); experiment: cell-based or functional assay
T2 sequence (looked up): T1 sequence

[3] = biological target: T3, full-length beta-Catenin (Uniprot ID P35222) (Homo sapiens (Human), UniProt P35222 1-781); experiment: fluorescence polarization competition; displacement of 5FAM-TCF4(10-53) from full-length beta-catenin
T3 construct: Used full-length in the fluorescence polarization probe solution (10 nM); also called bCat; B-Catenin
T3 sequence: T1 sequence
Procedure: The plate was incubated protected from light for 60 minutes at 20° C. prior to read. Reads were performed on a CLARIOstar plate reader (BMG Labtech) in duplicate, and data were fitted to a 1:1 binding model with hill slope using an in-house script. All provided concentrations are final concentrations.

NanoBRET Abs IC50 [2]: > 20 µM
Binder: Ac-[αAllylPro]D[tBuAla][B5(3)]DDAK(MeMorphBz)FN[PyrS2″][3Thi][Bta]Q-NH2 (staple 1-4, 4-11) [I-890]

NanoBRET Abs IC50 [2]: > 20 µM
Binder: Ac-[αAllylPro]D[tBuAla][B5(3)]DDAK(4MePipBz)FN[PyrS2″][3Thi][Bta]Q-NH2 (staple 1-4, 4-11) [I-889]

NanoBRET Abs IC50 [2]: > 20 µM
Binder: Ac-[αAllylPro]D[tBuAla][B5(3)]DDAK(Octanoyl)FN[PyrS2][3Thi][Bta]Q-NH2 (staple 1-4, 4-11; not fully specified) [I-898]

NanoBRET Abs IC50 [2]: > 20 µM
Binder: Ac-[αAllylPro]D[tBuAla][B5(3)]DDAK(Me3AdamantC)FN[PyrS2][3Thi][Bta]Q-NH2 (staple 1-4, 4-11) [I-900]

NanoBRET Abs IC50 [2]: > 20 µM
Binder: Ac-[αAllylPro]D[tBuAla][B5(3)]DDAK(AdamantC)FN[PyrS2(4)][3Thi][Bta]Q-NH2 (staple 1-4, 4-11; reading uncertain) [I-899]

NanoBRET Abs IC50 [2]: 21.2 µM
Binder: Ac-[αAllylPro]D[tBuAla][B5(3)]DDAAFN[PyrS2][3Thi][Bta]QK(35CF3PhPr)-NH2 (staple 1-4, 4-11) [I-902]

NanoBRET Abs IC50 [1]: 16.9 µM
Binder: Ac-[αAllylPro]D[tBuAla][B5(3)]DNAAFN[PyrS2″][3Thi][Bta]Q-NH2 (staple 1-4, 4-11) [I-836]

NanoBRET Abs IC50 [2]: 7.8 µM
Binder: Ac-[αAllylPro]D[tBuAla][B5(3)]DDAAFN[PyrS2″][3Thi][Bta]QK(Propanoyl(3-(1-naphthyl)))-NH2 (staple 1-4, 4-11) [I-903]

NanoBRET % inh @ 10 uM [1]: 32.4%
Binder: Ac-[αAllylPro]D[tBuAla][B5(7)]DDAAFN[PyrS3][3Thi][Bta]Q[dA]-NH2 (staple 1-4, 4-11) [I-831]

The remaining lines, values behind:

Binder: Ac-[αAllylPro]D[tBuAla][B5(7)]DDAAFN[PyrS2][3Thi][Bta]H[dA]-NH2 (staple 1-4, 4-11) [I-823]
NanoBRET % inh @ 10 uM [1]: 37.5%
NanoBRET IC50 [1]: > 10 µM

Binder: Ac-[αAllylPro]D[tBuAla][B5]DDAAFN[PyrS2″][3Thi][Bta]HA-NH2 (staple 1-4, 4-11) [I-820]
NanoBRET % inh @ 10 uM [1]: 30.8%

Binder: Ac-[αAllylPro]D[tBuAla][B5]DDAAFN[PyrS2″][3Thi][Bta]QA-NH2 (staple 1-4, 4-11) [I-819]
NanoBRET % inh @ 10 uM [1]: 37.8%

Binder: Ac-[αAllylPro]D[tBuAla][B5]DDAAFN[PyrS2″][3Thi][Bta]Q[dA]-NH2 (staple 1-4, 4-11) [I-822]
NanoBRET % inh @ 10 uM [1]: 53%
NanoBRET IC50 [1]: 7.7 µM

Binder: Ac-[αAllylPro]DI[B5(6)]DEAAFN[S8]F[Bta]H-NH2 (staple 1-4, 4-11, Stapled peptide composition) [I-472]
EC50 [3]: 0.062 µM

B1: I-478 (peptide)
peptide: XDAXDEAAFNXFXH
modifications: not fully specified; Ac-PL3-Asp-Ala-B5-Asp-Glu-Ala-Ala-Phe-Asn-S8-Phe-BztA-1MeH-NH2; N-terminal acetyl, C-terminal amide; stapled PL3-B5 and B5-S8
notes: Stapled peptide composition
EC50 [3]: 0.071 µM

Binder: Ac-[αAllylPro]DI[B5(6)]DEAAFQ[S8]F[Bta]H-NH2 (staple 1-4, 4-11, Stapled peptide composition) [I-471]
EC50 [3]: 0.052 µM

Binder: Ac-[αAllylPro]DI[B5(6)]DDAAFN[S8]F[Bta]H-NH2 (staple 1-4, 4-11; also: separate HPLC peak/isomer composition from I-469, Stapled peptide composition) [I-470]
EC50 [3]: 0.011 µM

B2: I-476 (peptide)
peptide: XDIXDEAAFNXFXQ
modifications: not fully specified; Ac-PL3-Asp-aIle-B5-Asp-Glu-Ala-Ala-Phe-Asn-S8-Phe-BztA-Gln-NH2; N-terminal acetyl, C-terminal amide; stapled PL3-B5 and B5-S8
notes: Stapled peptide composition
EC50 [3]: 0.048 µM
